Publication PMC7305210, “Mitochondria-adaptor TRAK1 promotes kinesin-1 driven transport in crowded environments” (Nature Communications, 2020)

B1: mCherry-labelled full-length TRAK1 (natural protein, UniProt Q9UPV9-1 1-953, looked up)
chain: MALVFQFGQPVRAQPLPGLCHGKLIRTNACDVCNSTDLPEVEIISLLEEQLPHYKLRADTIYGYDHDDWLHTPLISPDANIDLTTEQIEETLKYFLLCAERVGQMTKTYNDIDAVTRLLEEKERDLELAARIGQSLLKKNKTLTERNELLEEQVEHIREEVSQLRHELSMKDELLQFYTSAAEESEPESVCSTPLKRNESSSSVQNYFHLDSLQKKLKDLEEENVVLRSEASQLKTETITYEEKEQQLVNDCVKELRDANVQIASISEELAKKTEDAARQQEEITHLLSQIVDLQKKAKACAVENEELVQHLGAAKDAQRQLTAELRELEDKYAECMEMLHEAQEELKNLRNKTMPNTTSRRYHSLGLFPMDSLAAEIEGTMRKELQLEEAESPDITHQKRVFETVRNINQVVKQRSLTPSPMNIPGSNQSSAMNSLLSSCVSTPRSSFYGSDIGNVVLDNKTNSIILETEAADLGNDERSKKPGTPGTPGSHDLETALRRLSLRRENYLSERRFFEEEQERKLQELAEKGELRSGSLTPTESIMSLGTHSRFSEFTGFSGMSFSSRSYLPEKLQIVKPLEGSATLHHWQQLAQPHLGGILDPRPGVVTKGFRTLDVDLDEVYCLNDFEEDDTGDHISLPRLATSTPVQHPETSAHHPGKCMSQTNSTFTFTTCRILHPSDELTRVTPSLNSAPTPACGSTSHLKSTPVATPCTPRRLSLAESFTNTRESTTTMSTSLGLVWLLKERGISAAVYDPQSWDRAGRGSLLHSYTPKMAVIPSTPPNSPMQTPTSSPPSFEFKCTSPPYDNFLASKPASSILREVREKNVRSSESQTDVSVSNLNLVDKVRRFGVAKVVNSGRAHVPTLTEEQGPLLCGPPGPAPALVPRGLVPEGLPLRCPTVTSAIGGLQLNSGIRRNRSFPTMVGSSMQMKAPVTLTSGILMGAKLSKQTSLR
notes: TRAK1 (trafficking kinesin protein 1), cDNA KIAA1042 from the Kazusa DNA Research Institute; 953 residues by the printed region 636-953; also called mCherry-TRAK1; trafficking kinesin protein 1; source: HEK293T cells, transfected, purified (StrepTactinXT, eluted by TEV cleavage of the N-terminal tag, Superose 6 SEC); not shown: mCherry, N-terminal, kept; TwinStrep-FLAG-Halo, N-terminal, cleaved
B2: GFP-labelled KIF5B∆ (KIF5B without the inhibitory domain, amino acids 906-963) (domain or fragment, human, UniProt P33176 1-905, looked up)
chain: MADLAECNIKVMCRFRPLNESEVNRGDKYIAKFQGEDTVVIASKPYAFDRVFQSSTSQEQVYNDCAKKIVKDVLEGYNGTIFAYGQTSSGKTHTMEGKLHDPEGMGIIPRIVQDIFNYIYSMDENLEFHIKVSYFEIYLDKIRDLLDVSKTNLSVHEDKNRVPYVKGCTERFVCSPDEVMDTIDEGKSNRHVAVTNMNEHSSRSHSIFLINVKQENTQTEQKLSGKLYLVDLAGSEKVSKTGAEGAVLDEAKNINKSLSALGNVISALAEGSTYVPYRDSKMTRILQDSLGGNCRTTIVICCSPSSYNESETKSTLLFGQRAKTIKNTVCVNVELTAEQWKKKYEKEKEKNKILRNTIQWLENELNRWRNGETVPIDEQFDKEKANLEAFTVDKDITLTNDKPATAIGVIGNFTDAERRKCEEEIAKLYKQLDDKDEEINQQSQLVEKLKTQMLDQEELLASTRRDQDNMQAELNRLQAENDASKEEVKEVLQALEELAVNYDQKSQEVEDKTKEYELLSDELNQKSATLASIDAELQKLKEMTNHQKKRAAEMMASLLKDLAEIGIAVGNNDVKQPEGTGMIDEEFTVARLYISKMKSEVKTMVKRCKQLESTQTESNKKMEENEKELAACQLRISQHEAKIKSLTEYLQNVEQKKRQLEESVDALSEELVQLRAQEKVHEMEKEHLNKVQTANEVKQAVEQQIQSHRETHQKQISSLRDEVEAKAKLITDLQDQNQKMMLEQERLRVEHEKLKATDQEKSRKLHELTVMQDRREQARQDLKGLEETVAKELQTLHNLRKLFVQDLATRVKKSAEIDSDDTGGSAAQKQKISFLENNLEQLTKVHKQLVRDNADLRCELPKLEKRLRATAERVKALESALKEAKENASRDRKRYQQEVDRIKEA
notes: Constitutively active construct; also called KIF5B∆-GFP; source: SF9 insect cells (FlexiBAC baculovirus), purified (Ni-NTA, 6xHis cleaved by 3C PreScission protease, second Ni-NTA); not shown: GFP, C-terminal, kept; 6xHis, C-terminal, cleaved
B3: unlabelled KIF5B∆ (domain or fragment, human, UniProt P33176 1-905, looked up)
chain: B2 chain
notes: KIF5B, kinesin-1 heavy chain, human, amino acids 1-905; The methods describe only vectors with a C-terminal fluorescent tag; also called recombinant KIF5B∆; source: SF9 insect cells (all KIF5B constructs), purified

What was measured:
[1] = molecular target: B2; test: single-molecule fluorescence intensity distributions (TIRF) with labelling efficiencies from SEC absorption; intensity distributions of KIF5B∆-mCherry compared with mCherry-TRAK1 in the motility experiments; labelling efficiencies about 22% and about 88%; conditions: both partners purified
[2] = molecular target: the molecule itself; test: as above
[3] = molecular target: B1; test: single-molecule TIRF microscopy, two-colour co-movement on immobilised microtubules; KIF5B construct and 175 nM TRAK1 construct pre-incubated 10 min on ice, flushed onto bare immobilised microtubules in motility buffer with 1 mM Mg-ATP; room temperature; for the complexes traces of the mCherry-TRAK1 channel analysed; conditions: both partners purified
[4] = molecular target: B1; test: TIRF microscopy, reconstituted transport of mitochondria on immobilised microtubules; 2 nM unlabeled KIF5B∆, 100 nM mCherry-TRAK1 and 10 µg isolated mitochondria-GFP (4T1 cells) pre-incubated on ice, flushed onto immobilised microtubules; room temperature; conditions: both partners purified

Q: With B1 as the binder, how does the “stoichiometry N” value [1] read?
A: 1 TRAK1 dimer per KIF5B dimer

Q: What about the “stoichiometry N” value [2] of the same binder?
A: 2

Q: With B2 as the binder, how does the “stoichiometry N” value [2] read?
A: 2

Q: Does B2 bind [3]?
A: binds

Q: Does B3 bind [4]?
A: binds
